Assay results as given in the Immune Epitope Database (IEDB).
One block for each sequence: values may come before it.

Legend:
HLA-A*02:11 = experiment: IEDB peptide-MHC binding, purified MHC/direct/fluorescence; filed as Kd, often an IC50 or EC50 that approximates it; ≥ and ≤ were set here for values at or beyond the usual limits of such assays; settings: source organism: Influenza A virus(A/swine/Henan/8/2004(H9N2))
HLA-B*08:03 = experiment: as above; settings: source organism: Influenza A virus(A/swine/Henan/8/2004(H9N2))
HLA-A*01:01 [1] = experiment: as above; settings: source organism: Influenza A virus (A/New Caledonia/20/1999(H1N1))
HLA-A*03:01 = experiment: as above; settings: source organism: Influenza A virus (A/New Caledonia/20/1999(H1N1))
HLA-A*11:01 = experiment: as above; settings: source organism: Influenza A virus (A/New Caledonia/20/1999(H1N1))
HLA-A*02:01 = experiment: as above; settings: source organism: Influenza A virus (A/New Caledonia/20/1999(H1N1))
HLA-A*69:01 = experiment: as above; settings: source organism: Influenza A virus (A/New Caledonia/20/1999(H1N1))
HLA-A*31:01 = experiment: as above; settings: source organism: Influenza A virus (A/New Caledonia/20/1999(H1N1))
HLA-B*46:01 = experiment: as above; settings: source organism: Influenza A virus (A/New Caledonia/20/1999(H1N1))
HLA-B*15:02 = experiment: as above; settings: source organism: Influenza A virus(A/swine/Henan/8/2004(H9N2))
HLA-B*27:05 = experiment: as above; settings: source organism: Influenza A virus (A/New Caledonia/20/1999(H1N1))
HLA-B*58:01 = experiment: as above; settings: source organism: Influenza A virus (A/New Caledonia/20/1999(H1N1))
HLA-B*48:01 = experiment: as above; settings: source organism: Influenza A virus (A/New Caledonia/20/1999(H1N1))
HLA-C*15:02 = experiment: as above; settings: source organism: Influenza A virus (A/swine/Italy/1509-6/97(H1N1))
HLA-B*15:17 = experiment: as above; settings: source organism: Influenza A virus (A/New Caledonia/20/1999(H1N1))
HLA-C*14:02 [2] = experiment: as above; settings: source organism: Influenza A virus (A/swine/Italy/1509-6/97(H1N1))
HLA-B*57:01 = experiment: as above; settings: source organism: Influenza A virus (A/New Caledonia/20/1999(H1N1))
HLA-C*06:02 [3] = experiment: as above; settings: source organism: Influenza A virus (A/swine/Italy/1509-6/97(H1N1))
HLA-B*15:01 = experiment: as above; settings: source organism: Influenza A virus (A/New Caledonia/20/1999(H1N1))
HLA-B*07:02 = experiment: as above; settings: source organism: Influenza A virus (A/New Caledonia/20/1999(H1N1))
HLA-B*39:01 = experiment: IEDB peptide-MHC binding, purified MHC/competitive/fluorescence; filed as Kd, often an IC50 or EC50 that approximates it; ≥ and ≤ were set here for values at or beyond the usual limits of such assays; settings: source organism: Influenza A virus (A/swine/Italy/1509-6/97(H1N1))
HLA-A*26:03 = experiment: as above; settings: source organism: Influenza A virus (A/swine/Italy/1509-6/97(H1N1))
HLA-A*68:02 = experiment: as above; settings: source organism: Influenza A virus (A/swine/Italy/1509-6/97(H1N1))
HLA-B*08:01 = experiment: as above; settings: source organism: Influenza A virus (A/swine/Italy/1509-6/97(H1N1))
HLA-A*26:02 = experiment: as above; settings: source organism: Influenza A virus (A/swine/Italy/1509-6/97(H1N1))
HLA-B*15:09 = experiment: as above; settings: source organism: Influenza A virus (A/swine/Italy/1509-6/97(H1N1))
HLA-A*80:01 = experiment: IEDB peptide-MHC binding, purified MHC/direct/fluorescence; filed as Kd, often an IC50 or EC50 that approximates it; ≥ and ≤ were set here for values at or beyond the usual limits of such assays; settings: source organism: Mus musculus
HLA-A*01:01 [4] = experiment: IEDB peptide-MHC binding, purified MHC/competitive/fluorescence; filed as Kd, often an IC50 or EC50 that approximates it; ≥ and ≤ were set here for values at or beyond the usual limits of such assays; settings: source organism: Homo sapiens
HLA-A*29:02 = experiment: as above; settings: source organism: Homo sapiens
HLA-B*45:06 = experiment: as above; settings: source organism: Homo sapiens
HLA-C*14:02 [5] = experiment: as above; settings: source organism: Homo sapiens
HLA-C*06:02 [6] = experiment: as above; settings: source organism: Homo sapiens
HLA-B*15:42 = experiment: as above; settings: source organism: Homo sapiens
HLA-B*83:01 = experiment: as above; settings: source organism: Homo sapiens

Sequence: WMACHSAAF
Kd (HLA-A*02:11): 60 nM
Kd (HLA-B*08:03): 83 nM
Kd (HLA-A*01:01 [1]): ≥ 20000 nM
Kd (HLA-A*03:01): ≥ 20000 nM
Kd (HLA-A*11:01): ≥ 20000 nM
Kd (HLA-A*02:01): ≥ 20000 nM
Kd (HLA-A*69:01): ≥ 20000 nM
Kd (HLA-A*31:01): ≥ 20000 nM
Kd (HLA-B*46:01): 756 nM
Kd (HLA-B*15:02): 5 nM
Kd (HLA-B*27:05): 6300 nM
Kd (HLA-B*58:01): ≥ 20000 nM
Kd (HLA-B*48:01): 1430 nM
Kd (HLA-C*15:02): ≥ 20000 nM
Kd (HLA-B*15:17): 189 nM
Kd (HLA-C*14:02 [2]): 43 nM
Kd (HLA-B*57:01): ≥ 20000 nM
Kd (HLA-C*06:02 [3]): ≥ 20000 nM
Kd (HLA-B*15:01): 18 nM
Kd (HLA-B*07:02): 9800 nM
Kd (HLA-B*39:01): 59.5 nM
Kd (HLA-A*26:03): 158 nM
Kd (HLA-A*68:02): 929 nM
Kd (HLA-B*08:01): 77.2 nM
Kd (HLA-A*26:02): 0.4 nM
Kd (HLA-B*15:09): 600 nM

Kd (HLA-A*80:01): 109 nM
Kd (HLA-A*01:01 [4]): 1400 nM
Kd (HLA-A*29:02): ≤ 0.1 nM
Kd (HLA-B*45:06): ≥ 5000 nM
Kd (HLA-C*14:02 [5]): 0.4 nM
Kd (HLA-C*06:02 [6]): 663 nM
Kd (HLA-B*15:42): ≥ 5000 nM
Kd (HLA-B*83:01): ≥ 5000 nM
Sequence: TFMDHVLRY
